IntAct's records for PubMed 22613832

B1: Ras-related protein Rab-11B (Homo sapiens), Q15907 (parent)
chain: MGTRDDEYDYLFKVVLIGDSGVGKSNLLSRFTRNEFNLESKSTIGVEFATRSIQVDGKTIKAQIWDTAGQERYRAITSAYYRGAVGALLVYDIAKHLTYENVERWLKELRDHADSNIVIMLVGNKSDLRHLRAVPTDEARAFAEKNNLSFIETSALDSTNVEEAFKNILTEIYRIVSQKQIADRAAHDESPGNNVVDISVPPTTDGQKPNKLQCCQNL
partner: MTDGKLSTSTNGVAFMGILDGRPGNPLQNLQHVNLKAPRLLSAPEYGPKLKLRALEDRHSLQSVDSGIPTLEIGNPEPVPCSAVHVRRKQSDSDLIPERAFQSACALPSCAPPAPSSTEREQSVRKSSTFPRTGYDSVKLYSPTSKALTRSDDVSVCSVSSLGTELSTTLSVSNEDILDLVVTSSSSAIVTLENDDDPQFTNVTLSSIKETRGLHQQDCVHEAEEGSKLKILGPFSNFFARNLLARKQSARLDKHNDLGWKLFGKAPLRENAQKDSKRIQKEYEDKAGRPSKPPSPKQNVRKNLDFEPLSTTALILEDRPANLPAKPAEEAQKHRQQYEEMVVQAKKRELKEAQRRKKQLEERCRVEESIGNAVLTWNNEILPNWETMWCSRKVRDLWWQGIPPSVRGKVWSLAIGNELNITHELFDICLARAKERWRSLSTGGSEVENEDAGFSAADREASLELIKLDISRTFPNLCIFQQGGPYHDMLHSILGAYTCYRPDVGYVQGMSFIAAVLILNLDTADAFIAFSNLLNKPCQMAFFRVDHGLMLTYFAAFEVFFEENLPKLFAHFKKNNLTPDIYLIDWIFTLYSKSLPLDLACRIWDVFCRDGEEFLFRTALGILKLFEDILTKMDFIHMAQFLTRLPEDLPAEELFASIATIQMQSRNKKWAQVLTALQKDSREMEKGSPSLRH

Variants of: B1
Settings: with tbc14_human TBC1D14, Q9P2M4

effect of a mutation on the interaction	Variant
increasing interaction strength	Q70A
decreasing interaction strength	S25N
